Here are results for 13 molecules from patent US20260125454A1 (SHANGHAI JUNSHI BIOSCIENCES, published 2026).

The target in assay [1] is CGRP antigen. The assay can be described thus: cell-based or functional assay.
For assay [2], the target named is T1, Biotin-huCGRPaSA (human, not fully specified; biotin (position not given)).
T1 construct: exact construct ('aSA') not explained; also called Biotin CGRPaSA; full-length (1-37) CGRP
T1 peptide: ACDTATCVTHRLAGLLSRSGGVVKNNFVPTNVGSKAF
Kind of assay: ELISA, supernatant; relative to chimeric C245. In short, it runs like this:
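Antibodies, including reference chimeric C245, titrated 2.5-fold from 1000 ng/mL and incubated 60 min at 37°C on wells coated with 1.0 μg/mL biotin-CGRPaSA and blocked with 2% BSA. Bound IgG detected with HRP anti-human Fc antibody and TMB, acid-stopped, absorbance 450/620 nm.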

The target in assay [3] is T1, Biotin-huCGRPaSA. Kind of assay: ELISA, transfection supernatant, biotin-CGRP on streptavidin. The protocol:
Streptavidin was diluted to 0.5 μg/mL by using PBS (Hyclone) and added into a plate at 100 μL/well. The plate was incubated in a thermostat incubator at 37° C. for 90 min and then washed. 2% BSA was added to the plate at 200 μL/well, and the plate was incubated in the thermostat incubator at 37° C. for 90 min and washed. Biotin-huCGRPaSA was diluted to 2.0 μg/mL with 2% BSA and added into the plate at 100 μL/well, and the plate was incubated in the thermostat incubator at 37° C. for 60 min. The reference antibody (47-RM) was diluted to 2500 ng/ml with a diluent (2% BSA) and serially 4-fold diluted to 0.15 ng/mL, and the chimeric antibodies were diluted with a cell supernatant stock solution. All the chimeric antibody solutions and the reference antibody solution were added into plates at 80 μL/well, and the plates were incubated in a thermostat incubator at 37° C. for 60 min and washed. An HRP-conjugated mouse anti-human antibody IgG4 (manufacturer: Southern Biotech, Cat. No. 9200-05; Fc specificity) was diluted 5000-fold with 2% BSA and added into the plates at 100 μL/well, and the plates were incubated in the thermostat incubator at 37° C. for 60 min and washed. 0.1 mg/mL chromogenic reagent TMB was carefully added at 100 μL/well to avoid bubbles, and the system was incubated at 37° C. for 10 min away from light for chromogenic reaction. Finally, a 2 M hydrochloric acid solution was added at 100 μL/well to stop the reaction while avoiding bubbles, and the plates were read on a microplate reader within 10 min (the detection wavelength was 450 nm; the reference wavelength was 620 nm).
On the technique in general: An ELISA detects its analyte on a solid surface through an enzyme-linked reagent.

Assay [4] has as its target T1, Biotin-huCGRPaSA. The assay can be described thus: ELISA, purified antibody; relative to reference 47-RM-20190815. As for the experimental part: Streptavidin was diluted to […] by using PBS (Hyclone) and added into a plate at 100 μL/well. The plate was incubated in a thermostat incubator at 37° C. for 90 min and then washed. 2% BSA was added to the plate at 200 μL/well, and the plate was incubated in the thermostat incubator at 37° C. for 90 min and washed. Biotin-huCGRPaSA was diluted to 2.0 μg/mL with 2% BSA and added into the plate at 100 μL/well, and the plate was incubated in the thermostat incubator at 37° C. for 60 min. The chimeric antibodies in Table 3 and reference antibody (47-RM-20190815) were diluted to 1000 ng/ml with a diluent (2% BSA) and serially 10-fold diluted to 1 ng/mL. All the chimeric antibody solutions and the reference antibody solution were added into plates at 100 μL/well, and the plates were incubated in a thermostat incubator at 37° C. for 60 min and washed. An HRP-conjugated mouse anti-human antibody IgG4 (manufacturer: Southern Biotech, Cat. No. 9200-05; Fc specificity) was diluted 5000-fold with 2% BSA and added into the plates at 100 μL/well, and the plates were incubated in the thermostat incubator at 37° C. for 60 min and washed. 0.1 mg/mL chromogenic reagent TMB was carefully added at 100 μL/well to avoid bubbles, and the system was incubated at 37° C. for 5 min away from light for chromogenic reaction. Finally, a 2 M hydrochloric acid solution was added at 100 μL/well to stop the reaction while avoiding bubbles, and the plates were read on a microplate reader within 10 min (the detection wavelength was 450 nm; the reference wavelength was 620 nm). EC₅₀ was fit by using a four-parameter logistic regression (4PL) model.

B1: hu231 (antibody, human IgG4 S228P, kappa, V domains shown)
VH: QVQLVQSGSELKKPGASVKVSCKASGYTFTGYTMNWVRQAPGQGLEWMGLINPYIGNTHYNQKFKDRFVFSVDRSSSTAYLQISSLKAEDTAVYYCARELDSGFDYWGQGTLVTVSS
VL: DVVMTQTPLSLSVTPGQPASISCRSSQNIVHSNGDTYLEWYLQKPGQSPQLLIYKVSNRFSGVPDRFSGSGSGTDFTLKISRVEAEDVGVYYCYQGSHVPWTFGQGTKLEIKR
The term IC50 denotes the midpoint of a concentration-inhibition curve. On to B1, for which, in assay [1], inhibition was half-maximal at 0.0284 µg/mL (IC50) and the “relative activity (%) vs C245” value worked out at 91%. The “Relative binding activity, %” value in assay [2] was 68%.

B2: C263 (antibody, V domains shown)
VH: EVQLQQSGPELVKPGASVKISCKTSGYTFTDYNMHWVKQSHGKSLEWIGYISPYNGGTAYNQKFKFKSTLTVDTSSSTAYMELRSLTSEDSAVYYCAREGLGGYWGQGTTLTVSS
VL: DVVLTQSPTSLAVSLGQRATISCQASQNIDGNTYMNWYQQKPGQPPKVLIYSIFNLESGIPARFSGSGSGTHFTLTIHPVEEEDAATYYCQQSNDYPYTFGGGTKLEIK
notes: 3E5-HC + 2B8-LC2; chimeric, human constant regions
B2: the OD value in assay [3] came to 3.02 OD. In addition, the “Relative activity (%)” value in assay [4] worked out at 111%.

B3: C131 (antibody, V domains shown)
VH: EVQLQQSGPELVKPGASVKISCKASGYTFTDYNMHWVKQSHGKSLEWIGNIYPYNGGTVYNQKFNNKATLTVHTSSSTAYMDLRSLTSDDSAVYYCAREGLGGYWGQGTTLTVSS
VL: DIVLTQSPASLAVSLGQRATISCKASQNIDYDGYTYLNWYQQKPGQPPKVLIYSIFNLESGIPARFSGSGSGTDFTLNIHPVEEEDAATYYCQQSNEVPYTFGGGTKLEIK
notes: 2B8-HC1 + 3E5-LC; chimeric, human constant regions
Consider B3, for which the OD value in assay [3] was 3.02 OD. Besides, the “Relative activity (%)” value in assay [4] turned out to be 116%.

B4: C51 (antibody, V domains shown)
VH: EVQLQQSGPEVVKPGASVRISCQASGYTFTDYNMHWVKQSHGKSLEWIGYIFPYNGVAVYNRKFRSKATLIIDKSSTTAYMELRSLTSEDSAVYYCAREGLGGYWGQGTTLTVSS
VL: DIVLTQSPASLAVSLGQRATISCKASQNIDFDGYAYMNWYQHKPGQPPRVLIYSVFNLESGIPARFSGSGSGTDFTLNIHPVEEEDAATYYCQQSHEVPYTFGGGTNLEIK
notes: 1B2-HC + 1F5-LC1; chimeric, human constant regions
With B4, in assay [3], the OD value is 3.04 OD. Also, the “Relative activity (%)” value in assay [4] was found to be 56%.

B5: hu38 (antibody, V domains shown)
VH: QVQLVQSGAEVKKPGASVKVSCKASGYTFIDFNMHWVRQAPGQRLEWMGYIYPYNGDVVYNQNFTNRVTLTVDTSSSTAYMELSSLRSEDTAVYYCAREGLGGYWGQGTLVTVSS
VL: DIVLTQSPDSLAVSLGERATINCKASQNIDYGGYSYMNWYQQKPGQPPKVLIYSVFNLESGVPDRFSGSGSGTDFTLTISSLQAEDVAVYYCQQSNEAPYTFGQGTKLEIK
notes: 1F5 HC-1/3H10 LC2-1
In the case of B5, in assay [1], the half-inhibitory concentration (IC50) worked out at 0.0725 µg/mL and the “relative activity (%) vs Ref(TEVA)” value worked out at 50%. In addition, the “Relative binding activity, %” value in assay [2] was determined as 139%.

B6: hu235 (antibody, V domains shown)
VH: QVQLVQSGAEVKKPGASVKVSCKASGYTFTGYTMNWVRQAPGQGLEWMGLINPYIGNTHYNQKFKDRVTFTVDRSSSTAYMELSRLRSDDTAVYYCARELDSGFDYWGQGTLVTVSS
VL: DVVMTQTPLSLSVTPGQPASISCRSSQNIVHSNGDTYLEWYLQKPGQSPQLLIYKVSNRFSGVPDRFSGSGSGTDFTLKISRVEAEDVGVYYCYQGSHVPWTFGQGTKLEIK
notes: 3C1 HC-4/3C1 LC-2
With B6, in assay [1], the 50% inhibitory concentration (IC50) stood at 0.0619 µg/mL and the “relative activity (%) vs C245” value worked out at 45%. Also, in assay [2], the “Relative binding activity, %” value was determined as 74%.

B7: hu229 (antibody, V domains shown)
VH: QVQLVQSGAEVKKPGASVKVSCKASGYTFTGYTMNWVRQAPGQRLEWMGLINPYIGNTHYNQKFKDRVTFTVDRSSSTAYMELSSLRSEDTAVYYCARELDSGFDYWGQGTLVTVSS
VL: DVVMTQSPDSLAVSLGERATINCRSSQNIVHSNADTYLEWYQQKPGQPPKLLIYKVSNRFSGVPDRFSGSGSGTDFTLTISSLQAEDVAVYYCYQGSHVPWTFGQGTKLEIK
notes: 3C1 HC-2/3C1 LC-4
In the case of B7, in assay [1], the 50% inhibitory concentration (IC50) came out at 0.0851 µg/mL and the “relative activity (%) vs C245” value is 28%. The “Relative binding activity, %” value in assay [2] amounted to 48%.

B8: hu236 (antibody, V domains shown)
VH: QVQLVQSGAEVKKPGASVKVSCKASGYTFTGYTMNWVRQAPGQGLEWMGLINPYIGNTHYNQKFKDRVTFTVDRSSSTAYMELSRLRSDDTAVYYCARELDSGFDYWGQGTLVTVSS
VL: DVVMTQSPDSLAVSLGERATINCRSSQNIVHSNGDTYLEWYQQKPGQPPKLLIYKVSNRFSGVPDRFSGSGSGTDFTLTISSLQAEDVAVYYCYQGSHVPWTFGQGTKLEIK
notes: 3C1 HC-4/3C1 LC-3
Turning to B8, in assay [1], half-maximal inhibition (IC50) required 0.0514 µg/mL and the “relative activity (%) vs C245” value was 55%. Further, the “Relative binding activity, %” value in assay [2] stood at 68%.

B9: hu228 (antibody, human IgG4 S228P, kappa, V domains shown)
VH: QVQLVQSGAEVKKPGASVKVSCKASGYTFTGYTMNWVRQAPGQRLEWMGLINPYIGNTHYNQKFKDRVTFTVDRSSSTAYMELSSLRSEDTAVYYCARELDSGFDYWGQGTLVTVSS
VL: DVVMTQSPDSLAVSLGERATINCRSSQNIVHSNGDTYLEWYQQKPGQPPKLLIYKVSNRFSGVPDRFSGSGSGTDFTLTISSLQAEDVAVYYCYQGSHVPWTFGQGTKLEIKR
Turning to B9, in assay [1], the half-maximal inhibitory concentration (IC50) was 0.0267 µg/mL and the “relative activity (%) vs C245” value came out at 88%. Further, the “Relative binding activity, %” value in assay [2] is 68%.

B10: hu232 (antibody, V domains shown)
VH: QVQLVQSGSELKKPGASVKVSCKASGYTFTGYTMNWVRQAPGQGLEWMGLINPYIGNTHYNQKFKDRFVFSVDRSSSTAYLQISSLKAEDTAVYYCARELDSGFDYWGQGTLVTVSS
VL: DVVMTQSPDSLAVSLGERATINCRSSQNIVHSNGDTYLEWYQQKPGQPPKLLIYKVSNRFSGVPDRFSGSGSGTDFTLTISSLQAEDVAVYYCYQGSHVPWTFGQGTKLEIK
notes: 3C1 HC-3/3C1 LC-3
On to B10, for which, in assay [1], the “IC50” value was 0.044 µg/mL and the “relative activity (%) vs C245” value amounted to 59%. In addition, the “Relative binding activity, %” value in assay [2] amounted to 70%.

B11: hu233 (antibody, V domains shown)
VH: QVQLVQSGSELKKPGASVKVSCKASGYTFTGYTMNWVRQAPGQGLEWMGLINPYIGNTHYNQKFKDRFVFSVDRSSSTAYLQISSLKAEDTAVYYCARELDSGFDYWGQGTLVTVSS
VL: DVVMTQSPDSLAVSLGERATINCRSSQNIVHSNADTYLEWYQQKPGQPPKLLIYKVSNRFSGVPDRFSGSGSGTDFTLTISSLQAEDVAVYYCYQGSHVPWTFGQGTKLEIK
notes: 3C1 HC-3/3C1 LC-4
In the case of B11, in assay [1], it took 0.0877 µg/mL to reach half-maximal inhibition (IC50) and the “relative activity (%) vs C245” value came to 30%. Moreover, in assay [2], the “Relative binding activity, %” value amounted to 68%.

B12: hu237 (antibody, V domains shown)
VH: QVQLVQSGAEVKKPGASVKVSCKASGYTFTGYTMNWVRQAPGQGLEWMGLINPYIGNTHYNQKFKDRVTFTVDRSSSTAYMELSRLRSDDTAVYYCARELDSGFDYWGQGTLVTVSS
VL: DVVMTQSPDSLAVSLGERATINCRSSQNIVHSNADTYLEWYQQKPGQPPKLLIYKVSNRFSGVPDRFSGSGSGTDFTLTISSLQAEDVAVYYCYQGSHVPWTFGQGTKLEIK
notes: 3C1 HC-4/3C1 LC-4
B12: in assay [1], the 50% inhibitory concentration (IC50) was determined as 0.129 µg/mL and the “relative activity (%) vs C245” value was 22%. Moreover, in assay [2], the “Relative binding activity, %” value turned out to be 65%.

B13: hu225 (antibody, V domains shown)
VH: QVQLVQSGAEVKKPGASVKVSCKASGYSFTGYTMNWVRQAPGQRLEWMGLINPYIGNTHYNQKFKDRVTFTVDRSSSTAYMELSSLRSEDTAVYYCARELDSGFDYWGQGTLVTVSS
VL: DVVMTQSPDSLAVSLGERATINCRSSQNIVHSNADTYLEWYQQKPGQPPKLLIYKVSNRFSGVPDRFSGSGSGTDFTLTISSLQAEDVAVYYCYQGSHVPWTFGQGTKLEIK
notes: 3C1 HC-1/3C1 LC-4
Regarding B13, in assay [1], the 50% inhibitory concentration (IC50) worked out at 0.185 µg/mL and the “relative activity (%) vs C245” value came out at 10%. Further, the “Relative binding activity, %” value in assay [2] worked out at 52%.
